# Measured values as given in patent US20140248303A1.
# Assays:
# [1] = molecular target: 37/67 laminin receptor (LR) (Homo sapiens (Human)) (UniProt P08865); assay: cell-based or functional assay
# [2] = molecular target: 37/67 laminin receptor (LR) (Homo sapiens (Human)) (UniProt P08865); assay: adhesion of construct-labeled latex microspheres to fixed TNF-activated RBCEC6 cells
# [3] = molecular target: native CbpA of S. pneumoniae Tigr4 / T4R (on bacteria or in pneumococcal lysate) (Streptococcus pneumoniae Tigr4 strain); assay: cell-based or functional assay
# [4] = molecular target: 37/67 laminin receptor (LR) (Homo sapiens (Human)) (UniProt P08865); assay: adhesion of labeled latex microspheres to RBCEC6 cells
# [5] = molecular target: full length CbpA (CbpA-NR12) (Streptococcus pneumoniae Tigr4 strain); assay: competitive inhibition of rCbpA-coated latex beads binding to activated RBCEC6 cells by the LR peptide
substance,measurement,setting,value
CbpA P393G (as printed) expressed on a CbpA- S. pneumoniae strain,"adherence to endothelial cells of a CbpA- strain expressing the mutant, less than wild type CbpA",[1],39 % less
CbpA-R1,"bead adherence to RBCEC6 cells, % (compared with full length CbpA-NR12 beads)",[2],10%
LMWWML palindromic sequence within the 161-180 laminin-binding domain (peptide),"bacterial adhesion to activated RBCEC6 cells, % of control",[3],108 % of control
full length CbpA (CbpA-NR12),fold binding over control thioredoxin labeled beads,[4],20 fold
native CbpA of S. pneumoniae Tigr4 / T4R (on bacteria or in pneumococcal lysate),"pneumococcal (T4R) adherence to activated RBCEC6 cells, inhibited by anti-LRP r711",[1],54%
same,"pneumococcal (T4R) adherence to activated RBCEC6 cells, inhibited by laminin",[1],47%
same,"pneumococcal (T4R) invasion of activated RBCEC6 cells, inhibited by anti-LRP r711",[1],31%
same,"pneumococcal (T4R) invasion of activated RBCEC6 cells, inhibited by laminin",[1],36%
peptide corresponding to amino acids 161-180 of the laminin receptor,"adhesion of rCbpA-coated latex beads, % of control",[5],93 % of control
peptide corresponding to amino acids 263-282 of the laminin receptor,"adherence of rCbpA-coated latex beads, % of control",[5],38 % of control
